The target in assay [1] is T1, recombinant soluble recombinant human α5β1 integrin-Fc fusion protein (human, UniProt P08648 42-995; P05556 21-728, limits assumed).
T1 construct: Coated on ELISA plates at 1.0 µg/ml; The construct's limits and the Fc are not described; not shown: Fc part
In words: competition ELISA on coated α5β1 integrin-Fc; competitor: biotinylated IIA1. The procedure: (§1) Wells of 96-well ELISA plates (Nunc-Immuno MaxiSorp plate, NalgeNunc, Naperville, Ill.) were coated with 100 μl of 1.0 μg/ml recombinant soluble recombinant human α5β1 integrin-Fc fusion protein in 0.2 M sodium carbonate-bicarbonate buffer (pH 9.4) overnight at 4° C. After washing with Wash Buffer (PBS containing 0.1% Tween 20), wells were blocked with 200 μl of Superblock Blocking Buffer (Pierce) for 30 min and then washed with Wash Buffer. A mixture of biotinylated murine IIA1 (0.1 μg/test) and competitor antibody (duplicates of serial 3-fold dilutions of competitior antibodies starting at 5 mg/ml) in ELISA Buffer (PBS containing 1% BSA and 0.1% Tween 20) was applied to ELISA plates in a final volume of 100 μl per well. ELISA plates were incubated for 1 hr at room temperature and the wells were washed with Wash Buffer. Then, […] of 1/1,000-diluted HRP-conjugated streptavidin (Pierce, Rockford, Ill.) in ELISA Buffer was applied to each well. After incubating for 0.5 hr at room temperature and washing with Wash Buffer, 100 μl of TMB substrate was added to each well. Absorbance was read at 450 nm using a VERSAmax microplate reader (Molecular Devices, Menlo Park, Calif.). Final competitor concentration in the reaction was plotted versus absorbance at 450 nm.
Background: In an ELISA, binding on a coated surface is turned into a signal by an enzyme label.

Assay [2] addresses T1, recombinant soluble recombinant human …. In words: competition ELISA: plate coated with human α5β1 integrin-Fc, unlabelled antibody titrated against biotinylated murine IIA1, streptavidin-HRP, O.D. 450. The procedure:
as §1

Assay [3] deals with T2, AAB1/B2Fc.
T2 construct: Analyte in the BIAcore experiment
Put plainly: SPR (BIAcore), Fab immobilized by amine coupling, AAB1/B2Fc as analyte, 24° C. The procedure: (§2) Affinities between AAB1/B2Fc and IIA1, M200 or F200 were analyzed using BIAcore 3000 and 2000 (BIAcore, Sweden). IIA1, M200 or F200 was immobilized on the Pioneer F 1 chip using standard amine coupling kit (BIAcore). Surface plasmon resonance was measured at a flow rate of 50 ul/min at 24° C. Injection of AAB1/B2Fc (association phase) occurs over 180 seconds. Dissociation was subsequently monitored over 3 hours. Kinetics of binding were calculated from data acquired at five different concentrations of analyte (320 nM, 160 nM, 80 nM, 40 nM, 20 nM), using the BIAevaluation program. Double-referencing was applied to eliminate responses from reference surface and buffer only control. KD was obtained by simultaneously fitting the association and dissociation phases of the sensorgram from the analyte concentration series.

Assay [4] addresses T2, AAB1/B2Fc. Put plainly: SPR (BIAcore), antibody immobilized by amine coupling, AAB1/B2Fc as analyte, 24° C. On the procedure:
as §2
(In general: In SPR one partner is held on a chip, and binding of the other changes the refractive index at the surface.)

T1 sequence (P08648 42-995 limits assumed, chain 1 of 2): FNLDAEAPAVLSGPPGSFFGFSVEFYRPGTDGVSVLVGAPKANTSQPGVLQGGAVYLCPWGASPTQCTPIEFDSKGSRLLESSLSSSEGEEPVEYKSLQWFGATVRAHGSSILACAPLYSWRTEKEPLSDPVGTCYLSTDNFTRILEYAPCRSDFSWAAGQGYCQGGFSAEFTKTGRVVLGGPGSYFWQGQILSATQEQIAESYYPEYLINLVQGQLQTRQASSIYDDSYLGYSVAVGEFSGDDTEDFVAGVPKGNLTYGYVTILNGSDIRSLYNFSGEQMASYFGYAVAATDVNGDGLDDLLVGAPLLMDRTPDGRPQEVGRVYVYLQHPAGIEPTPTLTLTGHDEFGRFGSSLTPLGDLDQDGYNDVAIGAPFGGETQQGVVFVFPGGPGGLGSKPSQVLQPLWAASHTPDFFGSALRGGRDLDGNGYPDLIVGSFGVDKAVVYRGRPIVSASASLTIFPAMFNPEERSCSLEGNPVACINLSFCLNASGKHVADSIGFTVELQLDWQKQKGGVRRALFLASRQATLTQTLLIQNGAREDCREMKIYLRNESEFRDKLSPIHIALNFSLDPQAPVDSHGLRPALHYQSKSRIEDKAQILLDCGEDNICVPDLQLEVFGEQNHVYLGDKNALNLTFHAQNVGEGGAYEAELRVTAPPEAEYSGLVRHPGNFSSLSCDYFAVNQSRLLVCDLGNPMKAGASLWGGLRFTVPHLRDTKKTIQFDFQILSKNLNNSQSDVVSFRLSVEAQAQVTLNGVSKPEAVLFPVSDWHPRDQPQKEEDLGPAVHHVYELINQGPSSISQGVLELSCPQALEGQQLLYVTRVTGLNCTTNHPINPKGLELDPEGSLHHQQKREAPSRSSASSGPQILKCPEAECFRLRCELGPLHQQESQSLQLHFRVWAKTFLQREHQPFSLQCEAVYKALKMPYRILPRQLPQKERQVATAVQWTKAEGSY
T1 sequence (P05556 21-728 limits assumed, chain 2 of 2): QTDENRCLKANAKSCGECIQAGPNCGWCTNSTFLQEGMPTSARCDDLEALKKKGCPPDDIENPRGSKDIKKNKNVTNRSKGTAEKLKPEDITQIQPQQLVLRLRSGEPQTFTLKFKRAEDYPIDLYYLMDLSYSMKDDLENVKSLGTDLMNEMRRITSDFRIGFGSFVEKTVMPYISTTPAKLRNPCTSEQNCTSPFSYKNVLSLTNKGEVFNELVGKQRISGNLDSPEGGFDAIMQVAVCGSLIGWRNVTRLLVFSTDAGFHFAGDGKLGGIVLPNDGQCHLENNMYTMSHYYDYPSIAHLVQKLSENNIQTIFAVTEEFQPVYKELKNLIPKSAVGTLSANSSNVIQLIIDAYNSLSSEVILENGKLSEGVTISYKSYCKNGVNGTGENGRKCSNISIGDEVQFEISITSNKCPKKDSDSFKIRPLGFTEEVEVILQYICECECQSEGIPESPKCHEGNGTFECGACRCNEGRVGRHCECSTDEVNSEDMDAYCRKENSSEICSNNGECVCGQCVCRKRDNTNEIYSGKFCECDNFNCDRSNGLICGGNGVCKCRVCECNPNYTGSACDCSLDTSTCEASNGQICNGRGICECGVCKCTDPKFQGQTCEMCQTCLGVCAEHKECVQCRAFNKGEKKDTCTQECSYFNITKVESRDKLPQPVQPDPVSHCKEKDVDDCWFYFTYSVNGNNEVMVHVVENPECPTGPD

B1: HuM200, humanized M200 with IgG4 constant region (antibody, V domains shown)
VH: EVQLVESGGGLVQPGGSLRLSCAASGFSLTDYGVHWVRQAPGKGLEWLVVIWSDGSSTYNSALKSRMTISKDNAKNTVYLQMNSLRAEDTAVYYCARHGTYYGMTTTGDALDYWGQGTLVTVSS
VL: EIVLTQSPATLSLSPGERATLSCTASSSVSSNYLHWYQQKPGQAPRLLIYSTSNLASGVPARFSGSGSGTSYTLTISSLEPEDFAVYYCHQYLRSPPTFGGGTKVEIKR
notes: Humanized IgG4; also called HuM200-G4; huM200-G4
A word on the IC50: it is the concentration that gives 50% inhibition. On to B1, for which the concentration for half-maximal inhibition (IC50) in assay [1] was determined as 132 µg/mL. In assay [2], the “IC50 (read off the curve)” value was ~0.02 µg.

B2: HuM200-g2 m3G, humanized M200 with IgG2 constant region (antibody, V domains shown)
VH: B1 VH
VL: EIVLTQSPATLSLSPGERATLSCTASSSVSSNYLHWYQQKPGQAPRLLIYSTSNLASGVPARFSGSGSGTSYTLTISSLEPEDFAVYYCHQYLRSPPTFGGGTKVEIK
notes: Same variable domains as HuM200 with a constant region of IgG2
In the case of B2, in assay [1], the IC50 turned out to be 103 µg/mL. The “IC50 (read off the curve)” value in assay [2] is ~0.02 µg.

B3: IIA1, mouse anti-human α5β1 integrin antibody (antibody, V domains shown)
VH: QVQLKESGPGLVAPSQSLSITCTISGFSLTDYGVHWVRQPPGKGLEWLVVIWSDGSSTYNSALKSRMTIRKDNSKSQVFLIMNSLQTDDSAMYYCARHGTYYGMTTTGDALDYWGQGTSVTVSS
VL: QIVLTQSPAIMSASLGERVTMTCTASSSVSSNYLHWYQQKPGSAPNLWIYSTSNLASGVPARFSGSGSGTSYSLTISSMEAEDAATYYCHQYLRSPPTFGGGTKLEIKR
notes: Mouse monoclonal antibody (Pharmingen); also called murine IIA1; M100
In the case of B3, the IC50 in assay [1] stood at 79.1 µg/mL. Also, the “IC50 (read off the curve)” value in assay [2] is ~0.02 µg.

B4: F200, Fab fragment of M200 (Fab, V domains shown)
VH: B3 VH
VL: B3 VL
notes: Made by papain digestion of M200 IgG
Usually Kd stands for the constant that tells how readily two partners part at equilibrium. Take B4: the Kd in assay [3] stood at 332 pM.

B5: M200 chimeric anti-α5β1 integrin antibody (antibody, human IgG4, kappa, V domains shown)
VH: B3 VH
VL: B3 VL
notes: Mouse/human chimeric IgG4/kappa; also called 200-M; 200-4 EOS
For the molecule B5, in assay [1], the IC50 was 106 µg/mL. The same molecule returned a Kd in assay [4] of 367 pM. The “IC50 (read off the curve)” value in assay [2] was ~0.02 µg.
